Experimental data published in publication PMC11864811, “Human CST Stimulates Base Excision Repair to Prevent the Accumulation of Oxidative DNA Damage” (Journal of molecular biology, 2024).

Columns and labels:
[1] = biological target: Recombinant human Pol β (6X-His tagged) (human, UniProt P06746 1-335); test: cell-based or functional assay
[2] = biological target: Recombinant human OGG1 (6X-His tagged) (human, UniProt O15527 1-345); test: cell-based or functional assay
Recombinant human OGG1 (6X-His tagged), sequence (O15527 whole entry): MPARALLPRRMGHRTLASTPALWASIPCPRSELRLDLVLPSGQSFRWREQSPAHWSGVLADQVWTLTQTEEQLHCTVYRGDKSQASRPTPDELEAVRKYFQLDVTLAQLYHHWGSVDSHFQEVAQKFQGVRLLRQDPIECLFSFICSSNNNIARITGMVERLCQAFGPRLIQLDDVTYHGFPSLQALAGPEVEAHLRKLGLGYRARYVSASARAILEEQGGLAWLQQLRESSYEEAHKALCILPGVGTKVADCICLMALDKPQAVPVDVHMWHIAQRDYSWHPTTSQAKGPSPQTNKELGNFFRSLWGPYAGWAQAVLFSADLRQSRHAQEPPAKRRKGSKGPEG

B1: Myc-STN1 (natural protein, human, UniProt Q9H668 1-368, looked up)
chain: MQPGSSRCEEETPSLLWGLDPVFLAFAKLYIRDILDMKESRQVPGVFLYNGHPIKQVDVLGTVIGVRERDAFYSYGVDDSTGVINCICWKKLNTESVSAAPSAARELSLTSQLKKLQETIEQKTKIEIGDTIRVRGSIRTYREEREIHATTYYKVDDPVWNIQIARMLELPTIYRKVYDQPFHSSALEKEEALSNPGALDLPSLTSLLSEKAKEFLMENRVQSFYQQELEMVESLLSLANQPVIHSASSDQVNFKKDTTSKAIHSIFKNAIQLLQEKGLVFQKDDGFDNLYYVTREDKDLHRKIHRIIQQDCQKPNHMEKGCHFLHILACARLSIRPGLSEAVLQQVLELLEDQSDIVSTMEHYYTAF
With B1 as the binder, how does the “Pol β DNA synthesis on a random sequence 66 nt gapped substrate, fold increase with purified STN1” value [1] read?
Its value is ~7 fold.

What about the “Pol β dRP lyase activity, fold increase with purified STN1 (250-1500 nM; value at the highest concentration)” value [1] of the same binder?
Its value is 8 fold.

What about the “Pol β strand displacement synthesis on a 6-nt gapped substrate, fold increase with purified STN1” value [1] of the same binder?
Its value is 3 fold.

And the “OGG1 lesion removal and phosphodiester cleavage on an 8-oxo-G substrate, fold increase with purified STN1 (250-1500 nM; value at the highest concentration)” value [2]?
Its value is 4.3 fold.

B2: FLAG-TEN1 (natural protein)
chain: MMLPKPGTYYLPWEVSAGQVPDGSTLRTFGRLCLYDMIQSRVTLMAQHGSDQHQVLVCTKLVEPFHAQVGSLYIVLGELQHQQDRGSVVKARVLTCVEGMNLPLLEQAIREQRLYKQERGGSQ
For B2, which “Pol β DNA synthesis on a random sequence 66 nt gapped substrate, fold increase with purified TEN1” value [1] is on record?
Its value is ~3 fold.

And the “Pol β dRP lyase activity, fold increase with purified TEN1 (250-1500 nM; value at the highest concentration)” value [1]?
The value was 1.5 fold.

B3: FLAG-CTC1 (natural protein, human, UniProt Q2NKJ3 1-1217, looked up)
chain: MAAGRAQVPSSEQAWLEDAQVFIQKTLCPAVKEPNVQLTPLVIDCVKTVWLSQGRNQGSTLPLSYSFVSVQDLKTHQRLPCCSHLSWSSSAYQAWAQEAGPNGNPLPREQLLLLGTLTDLSADLEQECRNGSLYVRDNTGVLSCELIDLDLSWLGHLFLFPRWSYLPPARWNSSGEGHLELWDAPVPVFPLTISPGPVTPIPVLYPESASCLLRLRNKLRGVQRNLAGSLVRLSALVKSKQKAYFILSLGRSHPAVTHVSIIVQVPAQLVWHRALRPGTAYVLTELRVSKIRGQRQHVWMTSQSSRLLLLKPECVQELELELEGPLLEADPKPLPMPSNSEDKKDPESLVRYSRLLSYSGAVTGVLNEPAGLYELDGQLGLCLAYQQFRGLRRVMRPGVCLQLQDVHLLQSVGGGTRRPVLAPCLRGAVLLQSFSRQKPGAHSSRQAYGASLYEQLVWERQLGLPLYLWATKALEELACKLCPHVLRHHQFLQHSSPGSPSLGLQLLAPTLDLLAPPGSPVRNAHNEILEEPHHCPLQKYTRLQTPSSFPTLATLKEEGQRKAWASFDPKALLPLPEASYLPSCQLNRRLAWSWLCLLPSAFCPAQVLLGVLVASSHKGCLQLRDQSGSLPCLLLAKHSQPLSDPRLIGCLVRAERFQLIVERDVRSSFPSWKELSMPGFIQKQQARVYVQFFLADALILPVPRPCLHSATPSTPQTDPTGPEGPHLGQSRLFLLCHKEALMKRNFCVPPGASPEVPKPALSFYVLGSWLGGTQRKEGTGWGLPEPQGNDDNDQKVHLIFFGSSVRWFEFLHPGQVYRLIAPGPATPMLFEKDGSSCISRRPLELAGCASCLTVQDNWTLELESSQDIQDVLDANKSLPESSLTDLLSDNFTDSLVSFSAEILSRTLCEPLVASLWMKLGNTGAMRRCVKLTVALETAECEFPPHLDVYIEDPHLPPSLGLLPGARVHFSQLEKRVSRSHNVYCCFRSSTYVQVLSFPPETTISIPLPHIYLAELLQGGQSPFQATASCHIVSVFSLQLFWVCAYCTSICRQGKCTRLGSTCPTQTAISQAIIRLLVEDGTAEAVVTCRNHHVAAALGLCPREWASLLDFVQVPGRVVLQFAGPGAQLESSARVDEPMTMFLWTLCTSPSVLRPIVLSFELERKPSKIVPLEPPRLQRFQCGELPFLTHVNPRLRLSCLSIRESEYSSSLGILASSC
Which results are given for B3?
Pol β DNA synthesis on a random sequence 66 nt gapped substrate, fold increase with purified CTC1 [1]: ~7 fold; Pol β dRP lyase activity, fold increase with purified CTC1 (250-1500 nM; value at the highest concentration) [1]: ~7.5 fold; Pol β strand displacement synthesis on a 6-nt gapped substrate, fold increase with purified CTC1 [1]: 3 fold; OGG1 lesion removal and phosphodiester cleavage on an 8-oxo-G substrate, fold increase with purified CTC1 (250-1500 nM; value at the highest concentration) [2]: 3.1 fold

B4: Human CST complex (CTC1-STN1-TEN1) (complex)
chain 1: B3 chain
chain 2: B1 chain
chain 3: B2 chain
How did the “Pol β DNA synthesis on a random sequence 66 nt gapped substrate, fold increase with the CST complex” value [1] turn out when B4 was run?
Its value is ~3 fold.

What about the “Pol β dRP lyase activity, fold increase with the CST complex (7.5-45 nM; value at the highest concentration)” value [1] of the same binder?
The value was ~10 fold.
